Earlier results in PMC5141497.
Read-outs that look alike come from different tables or passages of the source.

Legend:
[1] = molecular target: Did2 MIM1 (Saccharomyces cerevisiae) (UniProt P69771)
[2] = molecular target: Vps2 MIM1 (Saccharomyces cerevisiae) (UniProt P36108)
[3] = molecular target: Did2 MIM1 (Saccharomyces cerevisiae) (UniProt P69771); remark: listed apart in the source

Sequence of Did2 MIM1 (Saccharomyces cerevisiae) (P69771 176-204): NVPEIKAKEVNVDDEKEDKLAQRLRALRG
Sequence of Vps4 MIT (P52917 1-83): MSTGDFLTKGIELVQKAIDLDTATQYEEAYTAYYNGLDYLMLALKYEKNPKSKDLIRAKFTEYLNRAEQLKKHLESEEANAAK
Sequence of Vps2 MIM1 (Saccharomyces cerevisiae) (P36108 183-232): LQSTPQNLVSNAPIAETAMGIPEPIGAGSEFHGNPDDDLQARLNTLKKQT
Sequence of Ist1 NTD (P53843 1-193): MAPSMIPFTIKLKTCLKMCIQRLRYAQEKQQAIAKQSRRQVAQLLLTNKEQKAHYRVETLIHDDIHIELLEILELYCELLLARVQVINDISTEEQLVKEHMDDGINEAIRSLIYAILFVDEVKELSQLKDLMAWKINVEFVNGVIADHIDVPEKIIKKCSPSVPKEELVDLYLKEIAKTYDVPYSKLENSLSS

Substance	Kd [1] [µM]	Kd [2] [µM]	Kd [3] [µM]
Ist1 NTD (from UniProt P53843)	1		
Vps4 MIT (from UniProt P52917)		28	39
